Drawing on patent US6323185, “Anti-viral guanosine-rich oligonucleotides and method of treating HIV” (The United States of America as represented by the …), this text covers IC50 for 37 molecules.

Data set [1] has as its target T1, HIV-1 integrase wild-type (IN1-288) (HIV-1, UniProt P12497 P12497:1148-1435). Nature of the data set: inhibition; first activity column (headed strand transfer, order matches 3'-processing elsewhere); other column 0.750; Table B-7 gives >0.5 for both. The note with it: G4.
Data set [2] concerns the target T1, HIV-1 integrase wild-type (IN1-288). Nature of the data set: inhibition; first activity column (headed strand transfer, order matches 3'-processing in Table D-1); other column 0.600. The settings on record: G4.
For data set [3] the target is unchanged. Nature of the data set: inhibition; first activity column (headed strand transfer); other column 0.030. The note with it: G4.
For data set [4] the target is unchanged. Put plainly: inhibition; 3'-processing (+/-26); strand transfer 134 nM. The note with it: G4.
Data set [5] has the same target. Nature of the data set: inhibition; first activity column (headed strand transfer); other column 0.070. The settings on record: G4.
For data set [6] the target is unchanged. Nature of the data set: inhibition; first activity column (headed strand transfer); other column 0.055. The note with it: G4.
Data set [7] shares this target. Put plainly: inhibition; first activity column (headed strand transfer); other column 0.040. The settings on record: G4.
Data set [8] shares this target. Put plainly: inhibition; first activity column (headed strand transfer); other column 0.095. The settings on record: G4.
Data set [9] has the same target. Nature of the data set: inhibition; 3'-processing; strand transfer 0.125 uM. The note with it: G4.
Data set [10] shares this target. Nature of the data set: inhibition; first activity column (headed strand transfer); other column 0.050.
For data set [11] the target is unchanged. Put plainly: inhibition; first activity column (headed strand transfer); other column 0.060. The note with it: G4.
Data set [12] shares this target. Nature of the data set: inhibition; first activity column (headed strand transfer); other column 0.134. The settings on record: G4.
The target is the same in data set [13]. Put plainly: inhibition; 3'-processing; strand transfer 0.123 uM. The note with it: one tetrad disrupted.
For data set [14] the target is unchanged. Nature of the data set: inhibition; first activity column (headed strand transfer); other column 0.013.
Data set [15] has the same target. Put plainly: inhibition; 3'-processing (+/-17); strand transfer 24 nM; Table C-2 0.060/0.020 uM. The settings on record: intramolecular G4.
For data set [16] the target is unchanged. Put plainly: inhibition; first activity column (headed strand transfer); other column 0.610; Table C-2 prints 3' end ggg. The settings on record: G4.
For data set [17] the target is unchanged. Nature of the data set: inhibition; 3'-processing; strand transfer 620 nM. The settings on record: G4.
Data set [18] shares this target. Nature of the data set: inhibition; first activity column (headed strand transfer); other column 0.084. The settings on record: G4.
For data set [19] the target is unchanged. Put plainly: inhibition; first activity column (headed strand transfer); other column 0.120. The note with it: G4.
The target in data set [20] is T2, gp120 envelope glycoprotein (HIV-1, UniProt P04578 P04578:33-511). Nature of the data set: competition; ID50, gp120/CD4 ELISA, preincubated with gp120. The settings on record: tags: gp120 capture ELISA kit.
The target of another data set is CD4 (UniProt P01730 P01730:26-396). Put plainly: competition; ID50, oligo with immobilized CD4. The note with it: tags: immobilized, gp120 capture ELISA kit.
Data set [21] concerns the target T1, HIV-1 integrase wild-type (IN1-288). Put plainly: inhibition; first activity column (headed strand transfer); other column 0.500. The settings on record: G4.
The target in data set [22] is T2, gp120 envelope glycoprotein. Nature of the data set: competition; ID50, gp120/CD4 ELISA. The settings on record: tags: gp120 capture ELISA kit. In general terms: ELISA stands for enzyme-linked immunosorbent assay.
Data set [23] addresses T1, HIV-1 integrase wild-type (IN1-288). Put plainly: inhibition; first activity column (headed strand transfer); other column 0.156. The note with it: G4.
Data set [24] shares this target. Put plainly: inhibition; 3'-processing; strand transfer 0.023 uM. The note with it: G4.
Data set [25] shares this target. Nature of the data set: inhibition; first activity column (headed strand transfer); other column 0.062. The note with it: G4.
Data set [26] shares this target. Put plainly: inhibition; first activity column (headed strand transfer); other column 0.016. The settings on record: G4, loop 3 inverted.
The target is the same in data set [27]. Put plainly: inhibition; 3'-processing; strand transfer 0.070 uM. The note with it: G4.

B1: T30659 thrombin-binding aptamer pPT (ssDNA)
DNA: GGTTGGTGTGGTTGG
modifications: PS at first and last linkages (Table B-7; Table C-1 lists it as PT)
By IC50 is commonly meant the concentration that inhibits the measured activity by half. A high value points to weaker potency. On to B1, for which, in data set [1], the IC50 worked out at 870 nM.

B2: T30673 (ssDNA)
DNA: GTGGTTGGTGTGGTTGG
modifications: PS at first and last linkages
As to B2, half-maximal inhibition in data set [2] (IC50) was put at 790 nM.

B3: T30701 (ssDNA)
DNA: GTGGTGGGTGGGTGGGT
modifications: PS at first and last linkages, capital T = C5-propynyl dU
Consider B3, for which the IC50 in data set [3] was found to be 72 nM.

B4: T30676 (ssDNA)
DNA: GTGGTGGGTGTGGTGGGT
modifications: PS at first and last linkages
With B4, the midpoint of inhibition in data set [4], the IC50, lay at 148 nM.

B5: T30570 (ssDNA)
DNA: GTGGTGGGTGGGTGGGT
modifications: PS at first and last linkages, 5-bromo-dU at position 13 [n positions 13 = modified dU]
B5: in data set [5], half-maximal inhibition (IC50) required 90 nM.

B6: T30579 (ssDNA)
DNA: GTGGTGGGTGGGTGGGT
modifications: PS at first and last linkages, 5-iodo-dU at positions 5, 9, 13 [n positions 5,9,13 = modified dU]
The molecule B6 had an IC50 in [6] of 60 nM.

B7: T30700 (ssDNA)
DNA: GTGGTGGGTGGGTGGGT
modifications: PS at first and last linkages, capital T = C5-propynyl dU
In [7], B7 gave a half-inhibitory concentration (IC50) of 82 nM.

B8: T30075 (ssDNA)
DNA: GTGGTGGGTGGGTGGGT
modifications: 3'-cholesterol via triglycyl linker
B8 gave an IC50 in [8] of 110 nM.

B9: T30175 (ssDNA)
DNA: GTGGTGGGTGGGTGGGT
modifications: all phosphodiester
B9: the midpoint of inhibition in data set [9], the IC50, lay at 170 nM.

B10: T30702 (ssDNA)
DNA: GTGGTGGGTGGGTGGGT
modifications: PS at first and last linkages, capital T = C5-propynyl dU
Turning to B10, the IC50 in data set [3] came out at 32 nM.

B11: T30719 (ssDNA)
DNA: GGGTGGGTGGGTGGGT
modifications: PS at first and last linkages, capital T = C5-propynyl dU
B11: inhibition in data set [6] was half-maximal at 55 nM (IC50).

B12: T30699 (ssDNA)
DNA: GTGGGTGGTGGGGTGGT
modifications: PS at first and last linkages
B12 came in with an IC50 in data set [10] (G4, loops 1 and 3 inverted) of 136 nM.

B13: T30744 (ssDNA)
DNA: GTGGTGGGCGGGTGGGT
modifications: PS at first and last linkages
In the case of B13, the half-inhibitory concentration (IC50) in data set [11] worked out at 105 nM.

B14: T30722 (ssDNA)
DNA: GTGGGTGGTGGGTGGGT
modifications: PS at first and last linkages, capital T = C5-propynyl dU
For the molecule B14, in [12], it took 129 nM to reach half-maximal inhibition (IC50).

B15: T30526 (ssDNA)
DNA: GTGATGGGTGGGTGGGT
modifications: PS at first and last linkages
As to B15, the half-inhibitory concentration (IC50) in data set [13] was determined as 200 nM.

B16: T30577 (ssDNA)
DNA: GTGGTGGGTGGGTGGGT
modifications: PS at first and last linkages, 5-iodo-dU at position 9 [n positions 9 = modified dU]
As to B16, the IC50 in data set [6] is 65 nM.

B17: T30576 (ssDNA)
DNA: GTGGTGGGTGGGTGGGT
modifications: PS at first and last linkages, 5-iodo-dU at position 5 [n positions 5 = modified dU]
The molecule B17 gave an IC50 in data set [10] (G4) of 65 nM.

B18: T30697 (ssDNA)
DNA: GTGGTGGGGTGGTGGGT
modifications: PS at first and last linkages
In data set [14] (G4, loop 2 inverted), B18 displayed an IC50 of 130 nM.

B19: T30695 (ssDNA)
DNA: GGGTGGGTGGGTGGGT
modifications: PS at first and last linkages
Consider B19, for which the half-inhibitory concentration (IC50) in data set [15] was 43 nM.

B20: T30674 (ssDNA)
DNA: GTGGTTGGTGTGGTTGGT
modifications: PS at first and last linkages
Take B20: the IC50 in data set [16] was 760 nM.

B21: T30677 (ssDNA)
DNA: GTGGTTGGTGGGTTGGT
modifications: PS at first and last linkages
B21: in data set [17], the half-maximal inhibitory concentration (IC50) was determined as 725 nM.

B22: T30661 (ssRNA)
RNA: GUGGUGGGUGGGUGGGU
modifications: PS at first and last linkages, RNA sugars
B22 yielded an IC50 in data set [18] of 111 nM.

B23: T30678 (ssDNA)
DNA: GTGGTGGGTGGGTTGGT
modifications: PS at first and last linkages
With B23, the IC50 in data set [19] came out at 98 nM.

B24: I100-21 (ssDNA)
DNA: GTGGTGGGTGGGTGGGTGGTGGGTGGTGGTTGTGGGTGGGTGGTG
modifications: all PS
Turning to B24, the figures for the IC50 (in data set [20]; in the data set with CD4) were 70 nM and 48 nM, respectively.

B25: T30675 (ssDNA)
DNA: GTGGTGGGTGTGGTTGGT
modifications: PS at first and last linkages
In [21], B25 displayed a half-inhibitory concentration (IC50) of 485 nM.

B26: 1174 (ssDNA)
DNA: GGGTGGGTGGGTGGGTGG
modifications: all PS
With B26, the IC50 in data set [22] is 90 nM.

B27: T30679 (ssDNA)
DNA: GTGGTTGGTGGGTGGGT
modifications: PS at first and last linkages
For the molecule B27, the concentration for half-maximal inhibition (IC50) in data set [23] came to 159 nM.

B28: T30578 (ssDNA)
DNA: GTGGTGGGTGGGTGGGT
modifications: PS at first and last linkages, 5-iodo-dU at position 13 [n positions 13 = modified dU]
On to B28, for which inhibition in data set [10] (G4) was half-maximal at 60 nM (IC50).

B29: T30571 (ssDNA)
DNA: GTGGTGGGTGGGTGGGT
modifications: PS at first and last linkages, 5-bromo-dU at positions 5, 9, 13 [n positions 5,9,13 = modified dU]
In the case of B29, 55 nM corresponded to half-maximal inhibition in [10] (G4) (IC50).

B30: 1232 random PT (ssDNA)
DNA: GATCCATGTCAGTGACAC
modifications: all PS
As for B30, the IC50 (in [22]; with CD4) was greater than 10000 nM throughout.

B31: T30341 thrombin-binding aptamer PT (ssDNA)
DNA: GGTTGGTGTGGTTGG
modifications: all PS (Table B-7; Table C-1 lists it as pPT)
With B31, the IC50 in [24] is 42 nM.

B32: T30720 (ssDNA)
DNA: GGGGTGGTGGGTGGGT
modifications: PS at first and last linkages, capital T = C5-propynyl dU
In turn, B32 came in with an IC50 in [25] of 59 nM.

B33: I100-12 (ssDNA)
DNA: GTTGGGGGTTGTTGGTGGGGTGGTGG
modifications: all PS
Consider B33, for which the IC50 in [20] is 80 nM; with CD4, 475 nM.

B34: T30696 (ssDNA)
DNA: GTGGGTGGTGGGTGGGT
modifications: PS at first and last linkages
Molecule B34 showed an IC50 in data set [14] (G4, loop 1 inverted) of 122 nM.

B35: 1231 random (ssDNA)
DNA: GATCCATGTCAGTGACAC
modifications: phosphodiester, amine
With B35, the figures for the IC50 (in data set [22]; with CD4) were greater than 100000 nM and greater than 50000 nM, respectively.

B36: T30698 (ssDNA)
DNA: GTGGTGGGTGGGGTGGT
modifications: PS at first and last linkages
Regarding B36, the IC50 in [26] was found to be 150 nM.

B37: T30038 (ssDNA)
DNA: GTGGTGGGTGGGTGGGT
modifications: all PS
In data set [27], B37 yielded an IC50 of 90 nM.
